Sequences and labels used below:
B1: 2021EP029-C04 scFv (scFv, V domains shown)
VH: QLQLQQSGPGLVKPSQTLSLTCAISGDSVSSNRAAWSWIRQSPSRGLEWLGRTYYRSKWYNDYAVSVESRIIINPDTSKNQFSLQLNPVTPEDTAVYYCARGSFESTWLWGQGTLVTVSS
VL: QAVVTQPHSVSESPGKTVTISCTRSGGSIANNYVHWYQQRPGSFPTALIYQDNQRRSGVPDRFSGSIDSSSNSASLTISGLKTEDEAEYYCQSFDNNNVVFGGGTQLTVL
B2: 2021EP030-C11 scFv (scFv, V domains shown)
VH: QMQLVQSKPEVKKPGTSVKVSCKASGFTFTSSAVQWVRQARGQRLEWIGWIVVGSGNTNYAQKFQERVTITRDMSTSTAYMELSSLRSEDTAVYYCAADGDYDIEGALDYWGQGTLVTVSS
VL: EIVLTQSPAILSLSPGERATLSCRASQSVSSYLAWYQQKPGQAPRLLIYDASNRATGIPARFSGSGSGTDFTLTISSLEPEDFAVYYCQQRSNWITFGGGTKVEIK
B3: 2021EP032-E06 scFv (scFv, V domains shown)
VH: QVQLVESGAEVKKPGASVKVSCKASGYTFTGYYMHWVRQAPGQGLEWMGRINPNSGGTNYAQKFQGRFTISRDNSKTTLFLQMNSLRAEDTAVYYCAKADYQWVGAIFRLNAFDIWGQGTMVTVSS
VL: VIWMTQSPSSLSASVGDRVTITCRASQGISNYLAWYQQKPGKVPKLLIYAASTLQSGVPSRFSGSGSGTDFTLTISSLQPEDVATYYCQKYNSAPYTFGQGTKLEIK
B4: 2021EP032-D10 scFv (scFv, V domains shown)
VH: EVQLVESGAEVKKPGSSVKVSCKASGGTFSSYAISWVRQAPGQGLEWMGGIIPIFGTANYAQKFQGRVAITADESTSTAYMELSSLRSEDTAVYYCARDLAIVYGSGSYYNHHPRIDYYYYGMDVWGQGTTVTVSS
VL: QSVLTQPRSVSGSPGQSVTISCAGTSSDIGAYNYVSWYQQHPGKAPTLMINDVSKRPSGVPDRFSGSKSGNTASLTISGLQAEDEGDYYCFSYAGSYTLVFGGGTQLTVL
B5: 2020EP034-B09 scFv (scFv, V domains shown)
VH: EVQLVQSGAEVKKPGASVKVSCKASGYTFTGYYMHWVRQAPGQGLEWMGRINPNSGGTNYAQKFQGRVTMTRDTSISTAYMELSGLRSDDTAVYFCARVTYNIGWYIDYWGQGTLVTVSS
VL: QAVVTQPPSVSVAPGKTATITCGGNNIGSKGVHWYQQKPGQAPVLVIYYDTDRPSGIPERLSGSNSGNTATLTISRVEAGDEADYYCQVWDSSSDHPVFGGGTKLTVL
B6: 2021EP030-F02 scFv (scFv, V domains shown)
VH: QVQLQESGPGLVKPSETLSLTCTVSGGSISSSSYYWGWIRQPPGKGLEWIGSIYYSGSTYYNPSLKSRVTISVDTSKNQFSLKLSSVTAADTAVYYCARQANQVVPAAIPWAKPGGTPPNWFDPWGQGTLVTVSS
VL: QLVLTQPPSVSVAPGETARITCGGNNIGSKSVHWYQQKPGQAPVLVIYYDSARPSGIPERVSGSNSGNTATLTISRVEAGDEADYYCQVWDSSSDHPRVFGTGTKLTVL
B7: 2021EP023-D06 scFv (scFv, V domains shown)
VH: QVQLVESGAEVKKPGSSVKVSCKASGGTFSSYAISWVRQAPGQGLEWMGGIIPIFGTANYAQKFQGRVTITADESTSTAYMELSSLRSEDTAVYYCARSRPVRGAYYWGQGTLVTVSS
VL: DIQMTQSPSSLSASVGDRVTITCRASQIVNSNYLNWYQQKPGKAPNLLIYGVSNLQVGVPSRFSGSGSGTDFTLSISSLQVEDSATYYCQQSYTTPRYSFGQGTKLEIRR
notes: Purified scFv with C-terminal flag and 6xHis tag
B8: 2020EP034-E01 scFv (scFv, V domains shown)
VH: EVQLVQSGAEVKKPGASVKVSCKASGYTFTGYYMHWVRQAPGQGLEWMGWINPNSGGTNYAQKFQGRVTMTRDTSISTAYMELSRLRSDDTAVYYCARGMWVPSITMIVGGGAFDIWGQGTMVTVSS
VL: DVVMTQSPLSLPVTPGEPASMSCRSSESLLHRNGFNYLDWYVQRPGQSPKLLIYMGSYRASGVPDRFSGRGSGTDFALKISRVEAEDVGVYYCMQALQSPPLYTFGPGTKLEIK
B9: 2020EP47-F02 scFv (scFv, V domains shown)
VH: QVQLQQWGAGLLKPSETLSLTCAVYGGSFSGYYWSWIRQPPGKGLEWIGEINHSGSTNYNPSLKSRVTISVDTSKNQFSLKLSSVTAADTAVYYCARGWYLGFDYWGQGTLVTVSS
VL: QSVLTQPRSVSGSPGQSVTISCTGTSRDVGGYDYVSWYQQYPGKAPKLMISGVSERPSGVPDRFTGSRSANTASLTISGLQTDDEANYYCCSYAGSFTWVFGDGTKLTVL
notes: also called EP047-F02
B10: 2021EP030-B10 scFv (scFv, V domains shown)
VH: QVQLVESGGDLVNPGRSLRLACTGAGFTFGDYAVSWFRQAPGKGLEWVGFIESKPYGETREYAASVRGRFTISRDDSKGIAYLQMNGLKTEDTGVYYCSSVVAWVAYWGQGTLVTVSS
VL: AIQLTQSPSSLSASIGDRVTITCRASQSVTTYLNWYHQKPGKAPTFLIYGTSALQSGVPSRFSGSGSGTDFTLTISSLQPEDFGIYYCQQSYSLPPTFGGGTNVQIR

The text below walks through data of US20240368275A1 (ELPIS BIOPHARMACEUTICALS, published 2024).

The first assay has as its target T1, human Nectin4-Fc fusion protein (human, UniProt Q96NY8 32-349).
T1 construct: Recombinant protein coated in the scFv ELISA and captured on the anti-hFc chip in the scFv SPR; also called recombinant Nectin4-Fc fusion protein; human Nectin4-Fc protein; not shown: Fc part
T1 sequence (looked up): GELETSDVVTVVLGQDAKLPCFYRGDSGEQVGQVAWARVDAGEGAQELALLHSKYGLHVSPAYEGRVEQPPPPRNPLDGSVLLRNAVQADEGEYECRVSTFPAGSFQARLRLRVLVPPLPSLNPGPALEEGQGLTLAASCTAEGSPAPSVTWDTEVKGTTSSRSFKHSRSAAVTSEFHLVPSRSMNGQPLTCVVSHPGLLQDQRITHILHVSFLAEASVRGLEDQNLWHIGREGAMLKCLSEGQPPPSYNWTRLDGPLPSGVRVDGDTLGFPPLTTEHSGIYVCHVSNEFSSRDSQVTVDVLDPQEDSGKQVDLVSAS
Nature of the assay: ELISA, coated human Nectin4-Fc, scFv titrated, anti-Flag HRP. The protocol: An ELISA assay was developed to determine the EC₅₀ of anti-Nectin4 antibodies. Briefly, 384 well plate was immobilized with human Nectin4-Fc at final concentration of 2 ug/mL in 1×PBS in total volume of 25 uL per well. The plate was incubated overnight at 4° C. followed by blocking with 80 uL of superblock per well for 1 hour. Purified anti-Nectin4 scFvs were 2-fold serial titrated from 200 nM. 25 uL was added to human Nectin4 immobilized wells and incubated for 1 hour with shaking. The Nectin4 binding was detected by adding 25 uL of anti-Flag HRP diluted at 1:5000 in 1×PBST. In between each step, the plate was washed 3 times with 1×PBST in a plate washer. The plate was then developed with 20 uL of TMB substrate for 5 mins and stopped by adding 20 uL of 2 N sulfuric acid. The plate was read at OD450 nm Biotek plate reader and then plotted in Prism 8.1 software.
A general note: An ELISA detects its analyte on a solid surface through an enzyme-linked reagent.
Consider B1, for which the response was half-maximal at 0.857 nM (EC50).
Same read-out and setting: in the case of B2 it was 291 nM; in that of B3, 0.412 nM.
Same read-out and setting: in the case of B4 it was 8.76 nM; in that of B5, 5.07 nM.
The molecule B6 gave an EC50 of 2.97 nM.

The target of another assay is T1, human Nectin4-Fc fusion protein. Nature of the assay: SPR Biacore T200, Nectin4-Fc captured on anti-hFc chip, scFv injected. The protocol:
Kinetic analysis of anti-Nectin4 scFvs has been assessed by SPR technology with Biacore T200. The assay was run with Biacore T200 control software version 2.0. Anti-human Fc antibody was immobilized on flow cell 1 and 2 of CM5 sensor chip. For each cycle, 1 ug/mL of human Nectin4-Fc protein was captured for 60 seconds at flow rate of 10 ul/min on flow cell 2 in 1×HBSP buffer on anti-hFc sensor chip. 2-fold serial diluted HIS tag purified anti-Nectin4 scFv was injected onto both reference flow cell 1 and Nectin4-Fc captured flow cell 2 for 150 seconds at flow rate of 30 ul/min followed by wash for 300 seconds. The flow cells were then regenerated with Antibody regeneration buffer (GE) for 30 seconds at flow rate of 30 ul/mins. 8 concentration points from 300-0 nM was assayed per anti-Nectin4 scFv in a 96 well plate. The kinetics of scFvs binding to Nectin4 protein was analyzed with Biacore T200 evaluation software version 3.0. The specific binding response unit was derived from subtraction of binding to reference flow cell 1 from Nectin4 captured flow cell 2.
In general terms: In SPR one partner is held on a chip, and binding of the other changes the refractive index at the surface.
B2 displayed a Kd of 55.5 nM, a koff of 0.000262 s⁻¹ and a kon of 4710 M⁻¹ s⁻¹.
For B7, in that order: 0.407 nM, 0.000195 s⁻¹ and 480000 M⁻¹ s⁻¹.
In turn, B8 showed a Kd of 10.9 nM, a koff of 0.000406 s⁻¹ and an association rate constant (kon) of 37000 M⁻¹ s⁻¹.
On the same counts, the results for B5 are 1.47 nM, 0.00018 s⁻¹ and 122000 M⁻¹ s⁻¹.
B6 gave an equilibrium dissociation constant (Kd) of 1.85 nM, an off-rate constant (koff) of 0.000215 s⁻¹ and a kon of 116000 M⁻¹ s⁻¹.

A further assay has as its target T2, full-length human Nectin4 with C-terminal flag and Myc tags on CHO cells (human, UniProt Q96NY8 32-510).
T2 construct: whole, on cells; also called Nectin4/CHO; CHO/Nectin4; not shown: C-terminal flag and Myc tags of pCMV6-Entry vector
T2 sequence (looked up): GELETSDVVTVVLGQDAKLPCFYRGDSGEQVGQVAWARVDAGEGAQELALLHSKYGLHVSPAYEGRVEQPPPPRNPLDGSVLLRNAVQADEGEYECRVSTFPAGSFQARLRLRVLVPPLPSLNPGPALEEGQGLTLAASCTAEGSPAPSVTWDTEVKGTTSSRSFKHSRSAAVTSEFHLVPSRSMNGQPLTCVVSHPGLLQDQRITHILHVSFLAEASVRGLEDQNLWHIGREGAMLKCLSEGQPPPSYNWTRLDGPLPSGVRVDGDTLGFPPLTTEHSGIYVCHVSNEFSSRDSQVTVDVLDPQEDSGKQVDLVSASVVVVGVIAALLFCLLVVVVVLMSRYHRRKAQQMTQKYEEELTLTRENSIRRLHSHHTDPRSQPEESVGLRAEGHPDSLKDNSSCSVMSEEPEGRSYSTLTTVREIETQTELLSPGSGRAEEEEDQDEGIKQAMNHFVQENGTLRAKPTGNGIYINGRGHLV
Put plainly: flow cytometry, scFv on Nectin4/CHO cells. On the procedure: To determine whether anti-Nectin4 scFvs bind to Nectin4 expressing cells, 200 nM of purified anti-Nectin4 scFv antibodies were diluted in full medium and incubated with Nectin4/CHO and CHO cells in 96 wells plate on ice for 1 hour. Cells were spun down at 1200 rpm for 5 minutes at 4° C. to remove primary antibodies. Cells were then washed once with 200 uL of full medium per well. Samples were detected with premixed anti-His Biotin Streptavidin Alexa fluor 647 by adding 100 uL of diluted secondary antibody and incubated at 4° C. for 30 minutes in the dark. Samples were spun down at 1200 rpm for 5 minutes at 4° C. and washed twice with 200 uL of 1×PBS per well. Reconstituted samples in 200 uL of 1×PBS and read on Attune NxT cytometer. Analysis was done by Attune NxT software plotting the overlay histogram of anti-Nectin4 scFvs binding onto both negative and target cell lines.
Background: In flow cytometry, cells or beads pass a laser one at a time.
B1: a half-maximal response (EC50) required 0.001 nM.
Same read-out and setting: in the case of B2 it was 13 nM; in that of B3, < 0.001 nM.
On to B4, for which the EC50 was 0.29 nM.
On the same count and under the same terms, in the case of B9 it was 4.51 nM; in that of B8, > 50 nM.
Same read-out and setting: in the case of B5 it was 0.36 nM.
Still for that read-out and setting: in the case of B10 it was 24.2 nM; in that of B6, 0.194 nM.

By EC50 is commonly meant the concentration giving half of the maximal effect. A high value points to a need for much substance. What is called Kd is a measure of binding affinity in units of concentration. One may read the koff as the rate constant with which the complex falls apart. What is called kon is the rate constant with which the complex forms.
